Reference: US20090053203A1 (ONTHERIX, published 2009)
Ends that are not written are not given here.

How the values were obtained:
Assay in all cases: chemical cross-linking of the biotinylated peptide on chilled cells, capture on Ni-NTA plates, detection with an antibody to the marker
PCNA = target: T1, PCNA (UniProt P12004 1-261, limits assumed)
T1 construct: whole, on cells
Protocol: (§1) HEK293 kidney cell line and 54 tumor cell lines obtained from the National Cancer Institute and passaged in RPMI1640 cell culture medium supplemented with 10% fetal bovine serum and 10 uM FeCl₂. Uptake of streptavidin-horseradish peroxidase (SA-HRP) conjugate and of various SA-HRP::MBD peptide complexes was determined as described (Singh et al. J Biol Chem. 279 (1):477-87 [2004]) using biotinylated MBD9 ([…]) (SEQ ID NO: 10) and MBD21 ([…]) (SEQ ID NO: 4) peptides and SA-HRP. Nuclear and cytoplasmic localization of these proteins was also determined in each case. […] In order to establish the underlying molecular mechanism for this variability, we cross-linked MBD21 peptide to the following cell surface markers at 4 degrees Celsius as previously described (Singh et al. J Biol Chem. 279 (1):477-87 [2004]): transferrin receptor 1, caveolin 1, PCNA, integrins alpha v, 2, 5 and 6, integrins beta 1, 3 and 5. […] Based on the strength of these correlations, it was possible to derive crude predictive formulae for MBD-mediated uptake based on the rate of cross-linking to surface markers. Such predictive formulas could form the basis for a diagnostic procedure to select appropriate targets for MBD-based therapies.

transferrin receptor 1 = target: T2, transferrin receptor 1 (UniProt P02786 1-760, limits assumed)
T2 construct: whole, on cells
Protocol: as §1

caveolin 1 = target: T3, caveolin 1 (UniProt Q03135 2-178, limits assumed)
T3 construct: whole, on cells
T3 sequence (looked up): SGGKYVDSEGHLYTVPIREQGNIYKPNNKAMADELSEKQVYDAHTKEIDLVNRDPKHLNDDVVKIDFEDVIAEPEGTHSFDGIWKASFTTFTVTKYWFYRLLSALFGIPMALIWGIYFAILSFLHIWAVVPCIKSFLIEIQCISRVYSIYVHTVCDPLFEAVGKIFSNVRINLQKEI
Protocol: as §1

Measured: binding result

T2 sequence (P02786 whole entry): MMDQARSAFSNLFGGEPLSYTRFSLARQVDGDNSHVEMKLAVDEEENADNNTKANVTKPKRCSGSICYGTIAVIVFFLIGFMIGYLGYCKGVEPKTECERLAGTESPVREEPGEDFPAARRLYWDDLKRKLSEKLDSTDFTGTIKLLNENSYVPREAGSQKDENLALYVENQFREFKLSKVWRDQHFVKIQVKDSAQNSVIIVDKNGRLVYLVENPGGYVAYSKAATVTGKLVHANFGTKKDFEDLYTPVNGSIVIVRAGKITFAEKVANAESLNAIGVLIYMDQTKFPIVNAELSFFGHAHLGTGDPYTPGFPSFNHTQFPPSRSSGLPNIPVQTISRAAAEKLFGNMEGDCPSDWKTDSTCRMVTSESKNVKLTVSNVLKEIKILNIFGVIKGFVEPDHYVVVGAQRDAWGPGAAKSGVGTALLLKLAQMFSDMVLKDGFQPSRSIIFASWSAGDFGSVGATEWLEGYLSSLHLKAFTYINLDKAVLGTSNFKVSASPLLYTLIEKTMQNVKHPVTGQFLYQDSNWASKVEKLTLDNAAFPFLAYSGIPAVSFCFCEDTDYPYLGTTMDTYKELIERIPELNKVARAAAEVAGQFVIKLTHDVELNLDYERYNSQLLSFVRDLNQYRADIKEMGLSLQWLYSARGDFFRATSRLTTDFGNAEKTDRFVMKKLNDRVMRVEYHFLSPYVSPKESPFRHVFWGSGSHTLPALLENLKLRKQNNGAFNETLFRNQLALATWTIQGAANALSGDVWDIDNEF
T1 sequence (P12004 whole entry): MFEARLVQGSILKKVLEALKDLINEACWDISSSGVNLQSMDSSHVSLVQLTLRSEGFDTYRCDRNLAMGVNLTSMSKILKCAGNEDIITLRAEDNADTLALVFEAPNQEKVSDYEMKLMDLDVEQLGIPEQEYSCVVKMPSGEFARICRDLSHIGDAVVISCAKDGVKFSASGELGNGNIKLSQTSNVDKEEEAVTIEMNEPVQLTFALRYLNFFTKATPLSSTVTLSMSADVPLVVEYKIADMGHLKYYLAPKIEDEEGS

B1: MBD21 peptide (biotinylated) (peptide)
peptide: KKGFYKKKQCRPSKGRKRGFCWAVDKYG
modifications: cysteine pairing not given here; also: biotinylated, position not given here
notes: also called biotinylated MBD21 peptide
binds: all assays above
